Source: US10550151B2, “Cell-penetrating compositions and methods using same” (Yale University, priority 2013, dated 2020)
Where no end group is shown, it is not given here.

How the values were obtained:
[1] = target: T1, eNOS (Bos taurus, UniProt P29473); test: VEGF-induced NO release by cultured BAEC (NO chemiluminescence); assay type: cell-based, bovine; conditions: for inhibition of VEGF-induced NO release: 6 h pretreatment; for effect on basal (unstimulated) NO release: six-hour pretreatment, no VEGF
T1 construct: effect of Endo5 fused to Cav (endo5-Cav) on NO release by cultured BAEC; endogenous in cells; host or cells: BAEC (cultured endothelial cells)
T1 sequence (P29473 2-1205 limits assumed): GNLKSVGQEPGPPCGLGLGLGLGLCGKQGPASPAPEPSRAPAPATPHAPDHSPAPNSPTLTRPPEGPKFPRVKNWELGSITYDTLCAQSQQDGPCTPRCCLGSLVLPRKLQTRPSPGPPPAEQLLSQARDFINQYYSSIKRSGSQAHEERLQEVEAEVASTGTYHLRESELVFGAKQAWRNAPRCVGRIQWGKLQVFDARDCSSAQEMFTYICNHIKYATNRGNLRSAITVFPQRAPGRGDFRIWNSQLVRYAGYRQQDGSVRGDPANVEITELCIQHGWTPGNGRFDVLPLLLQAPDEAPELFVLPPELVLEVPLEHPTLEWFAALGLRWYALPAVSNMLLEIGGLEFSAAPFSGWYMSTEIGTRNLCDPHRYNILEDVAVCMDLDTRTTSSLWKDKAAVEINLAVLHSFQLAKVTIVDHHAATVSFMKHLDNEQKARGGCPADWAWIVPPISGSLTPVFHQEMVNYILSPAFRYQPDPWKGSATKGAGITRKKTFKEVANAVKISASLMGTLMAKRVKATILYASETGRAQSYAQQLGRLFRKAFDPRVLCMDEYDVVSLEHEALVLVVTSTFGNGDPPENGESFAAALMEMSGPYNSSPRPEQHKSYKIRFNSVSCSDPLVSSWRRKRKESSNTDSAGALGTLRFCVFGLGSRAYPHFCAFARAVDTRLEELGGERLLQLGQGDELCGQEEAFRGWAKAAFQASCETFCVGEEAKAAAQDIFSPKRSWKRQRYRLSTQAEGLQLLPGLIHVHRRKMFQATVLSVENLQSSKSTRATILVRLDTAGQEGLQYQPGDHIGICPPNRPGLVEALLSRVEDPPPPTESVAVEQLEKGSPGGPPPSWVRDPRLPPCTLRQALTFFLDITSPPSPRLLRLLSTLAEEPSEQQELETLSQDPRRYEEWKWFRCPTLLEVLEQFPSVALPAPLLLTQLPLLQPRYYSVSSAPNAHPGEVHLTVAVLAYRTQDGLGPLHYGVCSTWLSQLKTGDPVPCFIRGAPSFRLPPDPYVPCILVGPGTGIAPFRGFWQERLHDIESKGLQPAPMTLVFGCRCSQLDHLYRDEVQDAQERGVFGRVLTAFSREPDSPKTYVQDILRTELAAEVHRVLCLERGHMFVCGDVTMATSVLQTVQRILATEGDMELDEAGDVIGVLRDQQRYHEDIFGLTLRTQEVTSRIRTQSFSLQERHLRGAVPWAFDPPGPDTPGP
Procedure: Briefly, confluent BAEC were incubated in serum-free DMEM for 6 hours with peptides. Media was removed and fresh serum-free DMEM was added, with or without VEGF (10^−9 M) for 30 min. Media was collected, cells were trypsinized and counted, and nitrites levels in the supernatant were determined by using a Sievers NO chemiluminescence analyzer.
AP-Cav blocks agonist-induced eNOS activity in cultured endothelial cells (Bucci et al., 2000, Nat. Med. 6:1362-7), and this biological activity is dependent on AP-Cav's internalization, dosage and pretreatment time. In the present study, the uptake potential of Endo5 was compared with that of AP by testing the effect of Endo5 fused to Cav (endo5-Cav) on NO release by cultured BAEC.

[2] = system: HUVEC; test: CPP imaging in live HUVEC (epifluorescence, pulse/chase); assay type: cell-based, human; conditions: for staining pattern after 1 h pulse: 37° C.; for staining pattern after two-hour chase: 2 h chase in absence of CPP
Procedure: Freshly isolated HUVEC were grown in M199 media supplemented with glutamine, 10% FBS and endothelial cell growth supplement on Petri dishes with glass bottom. Since CPPs bind non-specifically to glass, the background fluorescence was reduced by pretreating glass-bottom Petri dishes with a blocking solution containing unlabelled AP and Endo5 for 30 min (5×10^−5 M) in colorless M199 media with 1% FBS. After cell seeding, media was removed and carboxyfluorescin-labeled Endo5 and Rhodamine-labeled AP were added to cells (10^−5 M) and cells were incubated at 37° C. and 5% CO2 for 1 hour (pulse). Media was removed, cells were rinsed once with warm culture media and peptide uptake was rapidly visualized on a Zess Axiovert inverted fluorescence microscope by performing a Z-stack of captured images followed by volume deconvolution (Openlab software). The new media was left on cells for an additional 2 hours (total 3 hours) to chase CPP localization, and cells were visualized again (chase).
In the present study, epifluorescence microscopy experiments were performed in live HUVEC to compare the uptake mechanism of Endo5 to AP. After blocking glass bottom Petri dishes with unlabelled AP and Endo5 to minimize non-specific binding of labeled peptides, freshly isolated HUVEC were grown to 50% confluent and labeled with a “pulse” of carboxyfluorescein-Endo5 and rhodamine-AP (10^−6M) for 1 h, rinsed, followed by a two-hour “chase” for a total of 3 hours. Deconvoluted images were captured after the “pulse” and “chase” periods. […] (FIG. 5A). Nuclear staining was nearly completely absent (dark central area).

[3] = Peptide solubility in NO release dose-response experiment; assay type: physicochemical; conditions: above 2.5×10^-5 M
[4] = peptide 10^-5 M, VEGF 10^-9 M 30 min

| Substance | inhibition of VEGF-induced NO release ([1]; peptide 2×10^-6 M) [%] | inhibition of VEGF-induced NO release [1, 4] | effect on basal (unstimulated) NO release ([1]; peptide 10^-5 M) | staining pattern after 1 h pulse [2] | staining pattern after two-hour chase [2] | solubility limit [3] |
| --- | --- | --- | --- | --- | --- | --- |
| Endo5-CavAB: Endo5 fused to the Cav AB domain (caveolin-1 amino acids 82-95, SEQ ID NO: 6); a 19-mer peptide (RRPPRDGIWKASFTTFTVT) | 49 | completely blocked |  |  |  |  |
| RQIKIWFQNRRMKWKK [AP, reference compound] |  | no significant effect | no significant effect | diffuse punctate cytoplasmic staining | more concentrated rather than diffuse pattern |  |
| RQIKIWFQNRRMKWKKDGIWKASFTTFTVTKYWFYR [AP-Cav] |  |  |  |  |  | peptide insolubility at greater dose |
| RRPPR [Endo5, short five-amino acid cell-permeable peptide] |  | no significant effect | no significant effect | diffuse punctate cytoplasmic staining | more concentrated rather than diffuse pattern |  |
